Measured values: the DeepSol protein solubility set

Experiment: soluble on expression in E. coli; label from the status in PepcDB or PDB records
For “MRPLILSIFALFLAGCTHSQQSMVDTFRASLFDNQDITVADQQIQALPYSTMYLRLNEGQRIFVVLGYIEQEQSKWLSQDNAMLVTHNGRLLKTVKLNNNLLEVTNSGQDPLRNALAIKDGSRWTRDILWSEDNHFRSATLSSTFSFAGLETLHIAGRDVLCNVWQEEVTSTLPEKQWQNTFWVDSATGQVRQSRQMLGAGVIPVEMTFLKPAP”, the “soluble on expression in E. coli” value was “not soluble”.
In the case of “SNAMIYPYKEKKPKIASSAFIADYVTITGDVYVGEESSIWFNTVIRGDVSPTIIGDRVNVQDQCTLHQSPQYPLILEDDVTVGHQVILHSCHIKKDALIGMGSIILDGAEIGEGAFIGAGSLVSQGKKIPPNTLAFGRPAKVIRELTAEDRKDMERIRTQYVEKGQYYKSLQK”, the “soluble on expression in E. coli” value is reported as “soluble”.
With “MTLKFSVERLVDSEKESEEADVEEQNNLKKLEEDEEDDELCEKSGKNEPLSQTLSYFDVLLPHVQMACSNPFISGIGASGSGDQNLNTGAGGSVWQHPWLELLQSTTAAQFGDVTAGLFLQPLRKNKRIRTAFSASQLIQLEKAFEGNHYVVGNERKQLAAKLSLTETQVKVWFQNRRTKHKRVRLEGSDPNAPMSNDEDDEDDKKSVS” the “soluble on expression in E. coli” value was “not soluble”.
In the case of “MISANRPIINLDLDLLRTFVAVADLNTFAAAAAAVCRTQSAVSQQMQRLEQLVGKELFARHGRNKLLTEHGIQLLGYARKILRFNDEACSSLMFSNLQGVLTIGASDESADTILPFLLNRVSSVYPKLALDVRVKRNAYMAEMLESQEVDLMVTTHRPSAFKALNLRTSPTHWYCAAEYVLQKGEPIPLVLLDDPSPFRDMVLATLNKVDIPWRLAYVASTLPAVRAAVKAGLGVTARPVEMMSPDLRVLSGVDGLPPLPDTEYLLCYDPSSNNELAQVIYQAMESYHNPWQYSPMSAPEGDDSLLIERDIE”, the “soluble on expression in E. coli” value is reported as “not soluble”.
For “MTISRTQQIQQLEQEWTSPRWKNITRPYSAEDVIKLRGSVNPECTFAQNGAKKLWELLHGGSRKGYINCLGALTGGQALQQAKAGVEAIYMSGWQVAADANTASSMYPDQSLYPVDSVPAVVKRINNSFRRADQIQWSNNIEPGSKGYTDYFLPIVADAEAGFGGVLNAFELMKAMIEAGAAGVHFEDQLAAVKKCGHMGGKVLVPTQEAIQKLVAARLAADVLGVPTLLIARTDADAADLLTSDCDPYDREFITGDRTAEGFFRTRAGIEQAISRGLAYAPYADLVWCETSTPDLALAKRFADAVHAQFPGKLLAYNCSPSFNWKKNLTDQQIASFQDELSAMGYKYQFITLAGIHSMWFNMFDLAHAYAQGEGMKHYVEKVQQPEFASVDRGYTFASHQQEVGTGYFDKVTNIIQGGASSVTALTGSTEEQQF”, the “soluble on expression in E. coli” value was “soluble”.
With “NKVNDESVEYFGQRNEFRQASDFMEERISGMTNISIAIKTNESQGIAAPDFLNTIGEFSSWLRDQPETDHVATLADVYKRLNKNMHGDDEAYYLLPQERELAAQYLLLYEMSLPYGLDLNNQINVDKSSIKMVLTVANLGSVELVDLENRIYQWFAEHAPQYQVVASSPSLMFAHIGETN” the “soluble on expression in E. coli” value was “not soluble”.
For “MEESPTKTFKCPKCWNKFENKPKLITHVDLECKHKYFRCELCDFKSTQKTGLTSHYHGHIRQSNVIHCPYCKKKKTFKSRNNLMVHVHHYHPTHINEMKQANLESAKEEKMKTMLEKQAKEAHEFEISQPAVFEKDFASYDLPMFSQCPPMNGIPVSTPIEYPYSQNPYQDHTPFDSYPYPNFHPQQLPLPTFENNLPDIATYFDL”, the “soluble on expression in E. coli” value was “not soluble”.
With “MGSDKIHHHHHHMTTDILNISEEQLVDYSKAHNEPSWMTELRKKALKLTETLEMPKPDKTKLRKWDFDSFKQHDVKGDVYQSLSQLPESVREIIDVDHSKNLVIQHNNTIAYTQVDDNASKDGVIVEGLADALMNHSDLVQKYFMKDAVTVDEHRITALHTALVNGGVFVYVPKNVVVEHPVQYVVLHDDENASFYNHVIIVTEESAEVTYVENYLSNASGEGNQLNIISEVIAGANSNITYGSVDYMDKGFTGHIIRRGITEADASINWALGLMNEGSQIIDNTTNLFGDRSTSSLKSVVIGTGEQKINLTSKIVQYGKETDGYILKHGVMKEHASSVFNGIGYIKHGGTKSIANQESRVLMLSEHARGDANPILLIDEDDVQAGHAASVGRVDPDQLYYLMSRGISQREAERLVIHGFLDPVVRELPIEDVKRQLREVIERKVSK” the “soluble on expression in E. coli” value was “not soluble”.
For “MTLPRFDQIRPKIEQHIREVKDFPKKGINFRDIMPLFTNPQLVNELCVVIADHVRHTVGHVDSVAGLEARGFLFGPQVAIQLGVPFVPIRKKGKLPGATIEASYVKEYGEDRVEIQEGAIKNGDIVFLIDDLLATGGTLRAATDLVVKAGGKVGEAFVLIELAPLNGRSKLPDVNLTTLISYDSA”, the “soluble on expression in E. coli” value was “not soluble”.
